{"source": "patent US11427805B2", "about": "“Methods of producing human foregut endoderm cells expressing PDX1 from human definitive endoderm” (ViaCyte, Inc., priority 2005, dated 2022)", "molecules": {"B1": {"name": "activin A (protein, UniProt P08476 311-426, looked up)", "Inhibin beta A chain": "GLECDGKVNICCKKQFFVSFKDIGWNDWIIAPSGYHANYCEGECPSHIAGTSGSSLSFHSTVINHYRMRGHSPFANLKSCCVPTKLRPMSMLYYDDGQNIIKKDIQNMIVEECGCS", "modifications": "Inhibin beta A chain"}}, "assay_type_in_all_cases": "cell-based, human", "key": {"[1]": {"system": "AFP gene expression", "assay": "Q-PCR of AFP gene expression in differentiating hESCs", "method": "(§1) In the following experiments, real-time quantitative RT-PCR (Q-PCR) was the primary assay used for screening the effects of various treatments on hESC differentiation. In particular, real-time measurements of gene expression were analyzed for multiple marker genes at multiple time points by Q-PCR. Marker genes characteristic of the desired as well as undesired cell types were evaluated to gain a better understanding of the overall dynamics of the cellular populations. The strength of Q-PCR analysis includes its extreme sensitivity and relative ease of developing the necessary markers, as the genome sequence is readily available. Furthermore, the extremely high sensitivity of Q-PCR permits detection of gene expression from a relatively small number of cells within a much larger population. In addition, the ability to detect very low levels of gene expression provides indications for “differentiation bias” within the population. The bias towards a particular differentiation pathway, prior to the overt differentiation of those cellular phenotypes, is unrecognizable using immunocytochemical techniques. […] Additionally, Q-PCR provides a mechanism by which to evaluate the success of a differentiation protocol in a quantitative format at semi-high throughput scales of analysis.\nTo generate PCR template, total RNA was isolated using RNeasy (Qiagen) and quantitated using RiboGreen (Molecular Probes). Reverse transcription from 350-500 ng of total RNA was carried out using the iScript reverse transcriptase kit (BioRad), which contains a mix of oligo-dT and random primers. […] Fluorescence data was collected during the last 15 seconds of each extension phase. A three point, 10-fold dilution series was used to generate the standard curve for each run and cycle thresholds (Ct's) were converted to quantitative values based on this standard curve. The quantitated values for each sample were normalized to housekeeping gene performance and then average and standard deviations were calculated for triplicate samples. […]"}, "[2]": {"system": "SOX17 gene expression", "assay": "Q-PCR of SOX17 gene expression in differentiating hESCs", "method": "as §1\nThe approach taken here was to perform relative quantitation using SYBR Green chemistry on a Rotor Gene 3000 instrument (Corbett Research) and a two-step RT-PCR format. Such an approach allowed for the banking of cDNA samples for analysis of additional marker genes in the future, thus avoiding variability in the reverse transcription efficiency between samples.\nTo generate PCR template, total RNA was isolated using RNeasy (Qiagen) and quantitated using RiboGreen (Molecular Probes). Reverse transcription from 350-500 ng of total RNA was carried out using the iScript reverse transcriptase kit (BioRad), which contains a mix of oligo-dT and random primers. Each 20 μL reaction was subsequently diluted up to 100 μL total volume and 3 μL was used in each 10 μL Q-PCR reaction containing 400 nM forward and reverse primers and 5 μL 2×SYBR Green master mix (Qiagen). Two step cycling parameters were used employing a 5 second denature at 85-94° C. (specifically selected according to the melting temp of the amplicon for each primer set) followed by a 45 second anneal/extend at 60° C. Fluorescence data was collected during the last 15 seconds of each extension phase. A three point, 10-fold dilution series was used to generate the standard curve for each run and cycle thresholds (Ct's) were converted to quantitative values based on this standard curve. The quantitated values for each sample were normalized to housekeeping gene performance and then average and standard deviations were calculated for triplicate samples. At the conclusion of PCR cycling, a melt curve analysis was performed to ascertain the specificity of the reaction. A single specific product was indicated by a single peak at the Tm appropriate for that PCR amplicon.\nA first step in establishing the Q-PCR methodology was validation of appropriate housekeeping genes (HGs) in the experimental system. […] We measured the expression levels of Cyclophilin G, hypoxanthine phosphoribosyltransferase 1 (HPRT), beta-2-microglobulin, hydroxymethylbiane synthase (HMBS), TATA-binding protein (TBP), and glucoronidase beta (GUS) in differentiating hESCs. […] We routinely used both Cyclophilin G and GUS to calculate a normalization factor for all samples. The use of multiple HGs simultaneously reduces the variability inherent to the normalization process and increases the reliability of the relative gene expression values.\nWe were the first to analyze and describe the effect of TGFβ family growth factors, such as Nodal/activin/BMP, for use in creating definitive endoderm cells from embryonic stem cells in in vitro cell cultures. […]"}, "[3]": {"system": "definitive endoderm", "assay": "Dorsal / ventral / PDX1-negative foregut endoderm differentiation from definitive endoderm (marker gene expression)", "conditions": "first four days of differentiation (FIGS. 51A, 51B)", "quoted_text": "Definitive endoderm was produced from undifferentiated hESCs using a three or five day protocol in which activin A was provided to the culture medium at a concentration of 100 ng/ml each day. For both dorsal and ventral differentiation, the medium composition for the first five days was as follows: Day 1—RPMI+0% fetal bovine serum (FBS), Day 2—RPMI+0.2% PBS, Day 3—RPMI+2.0% FBS, Day 4—RPMI+2.0% FBS and Day 5—RPMI+2.0% FBS. For the ventral differentiation, definitive endoderm was produced for 3 days in activin A at 100 ng/ml and then exposed to BMP4 at 3 ng/ml and FGF10 at 50 ng/ml. […] For the dorsal differentiation procedure, definitive endoderm was produced for 5 days in activin A at 100 ng/ml and then exposed to retinoic acid (RA) at 2 μM and activin A at 25 ng/ml in CMRL medium containing B27 supplement (1:200).\nFour separate conditions were used to treat hESCs that result in varying proportions of differentiation to definitive endoderm. All four conditions utilized RPMI supplemented with 0% FBS on the first day, 0.2% FBS on second day, and 2% FBS on days 3 and 4. The four conditions were as follows: (a) BMP4 at 100 ng/mL with SU5402 at 5 μM; (b) no exogenous growth factors; (c) activin A at 15 ng/mL; and (d) activin A at 100 ng/ml. […] All cultures were then incubated for 2 days with BMP4 at 3 ng/mL, FGF10 at 50 ng/ml and KAAD-cyclopamine at 0.5 μM in a base medium of 2% FBS in RPMI followed by 6 days with BMP4 at 3 ng/mL, FGF10 at 50 ng/ml and KAAD-cyclopamine at 0.5 μM in a base medium composed of CMRL with 1:200 dilution of B27 extract.\nDefinitive endoderm was produced by exposing undifferentiated hESCs to activin at 100 ng/mL in RPMI base medium supplemented with 0%, 0.2%, and 2% FBS on days 1 through 3, respectively. After 3 days of activin A treatment, the cultures were switched to a base medium composed of RPMI containing 2% FBS and maintained under one of the following conditions: (a) BMP4 at 3 ng/ml with FGF10 at 50 ng/ml and KAAD-cyclopamine at 0.5 μM; (b) FGF10 at 50 ng/ml and KAAD-cyclopamine at 0.5 μM; or (c-e) no exogenous factors. After two days, the base medium was changed to CMRL plus B27 supplement (1:200) and cells were maintained according to conditions (a-c) above. Alternatively, cells were maintained with no exogenous factors in RPMI with B27 supplement (1:200) (condition (d)) or RPMI with 2% FBS (condition (e)). The same factor treatment conditions were maintained for 8 more days of differentiation.\nHuman embryonic stem cells were differentiated for 7 days via a 2-step protocol to achieve PDX1 cells. The first step comprised 5 days differentiation in activin A (100 ng/ml) to robustly produce DE (D'Amour, K., et al., Nature Biotechnology 23, 1534-1541, (2005)). […]"}, "[4]": {"system": "CXCR4 gene expression", "assay": "Q-PCR of CXCR4 gene expression in differentiating hESCs", "method": "In these experiments, hESCs were differentiated by growing in RPMI medium (Invitrogen, Carlsbad, Calif.; cat #61870-036) supplemented with 0.5%, 2.0% or 10% FBS and either with or without 100 ng/ml activin A for 6 days. In addition, a gradient of FBS ranging from 0.5% to 2.0% over the first three days of differentiation was also used in conjunction with 100 ng/ml of activin A. After the 6 days, replicate samples were collected from each culture condition and analyzed for relative gene expression by real-time quantitative PCR. The remaining cells were fixed for immunofluorescent detection of SOX17 protein.\nhESCs were differentiated in RPMI media supplemented with 0.5%-2% FBS (increased from 0.5% to 1.0% to 2.0% over the first 3 days of differentiation) and either 0, 10, or 100 ng/ml of activin A. After 7 days of differentiation the cells were dissociated in PBS without Ca^2+/Mg^2+ containing 2% FBS and 2 mM (EDTA) for 5 minutes at room temperature. The cells were filtered through 35 μm nylon filters, counted and pelleted. […] Cells were resuspended at 5×10^6 cells/ml in buffer and analyzed and sorted using a FACS Vantage (Beckton Dickenson) by the staff at the flow cytometry core facility (The Scripps Research Institute). Cells were collected directly into RLT lysis buffer (Qiagen) for subsequent isolation of total RNA for gene expression analysis by real-time quantitative PCR."}}, "data": [{"molecule": "B1", "values": [{"measurement": "suppression of AFP gene expression in comparison to no treatment", "setting": "[1]; FIG. 8A", "result": 6.8, "unit": "fold"}, {"measurement": "difference in AFP gene expression levels, activin A vs random differentiation in 10% FBS", "setting": "[1]; FIG. 8A legend", "result": "approximately 7 fold"}, {"measurement": "expression of the visceral endoderm marker AFP", "setting": "[1]; activin A dose series (FIG. 13A)", "result": "dose-dependent decrease"}, {"measurement": "dose dependence of SOX17 gene expression", "setting": "[2]; 0, 10, 30 or 100 ng/ml (FIG. 11)", "result": "dose-dependently increases SOX17 gene expression"}, {"measurement": "SOX17 induction compared to no factor medium controls", "setting": "[2]; 4-day time point", "result": 5, "unit": "fold"}, {"measurement": "SOX17 gene expression relative to the undifferentiated control media (SR20)", "setting": "[2]; FIG. 7A", "result": "increases SOX17 gene expression"}, {"measurement": "induction of SOX17 gene expression vs. undifferentiated hESCs", "setting": "[2]; day 4 of differentiation / four days of exposure, activin A at 100 ng/ml, 10% serum medium (FIGS. 19, 21)", "result": 19, "unit": "fold"}, {"measurement": "difference in the level of SOX17 mRNA expression", "setting": "[2]; hESCs treated with activin A vs retinoic acid (FIG. 7A)", "result": 10, "unit": "fold"}, {"measurement": "definitive endoderm production (CER and SOX17 gene expression)", "setting": "[3]", "result": "robust definitive endoderm differentiation"}, {"measurement": "relative levels of CXCR4 gene expression", "setting": "[4]; 0, 10, or 100 ng/ml, 7 days (FIG. 32)", "result": "dramatically increased with increasing dose"}, {"measurement": "CXCR4 expression", "setting": "[4]; 100 ng/ml (A100) vs no exogenous activin A (NF), 6 days (FIG. 26)", "result": "high"}]}]}
